Experimental data taken from patent US20230212319A1, “NOVEL ANTIGEN BINDING DOMAINS AND SYNTHETIC ANTIGEN RECEPTORS INCORPORATING THE SAME” (University of Southern California, priority 2020, published 2023).

Assays:
[1] = test system: DAUDI (CD20+) cells; type: cell-based
[2] = test system: RS411 cells; type: cell-based
[3] = test system: RAJI cells; experiment: JNG (Jurkat NFAT-GFP) cells expressing SAR: GFP induction on co-culture with RAJI
[4] = test system: L428 cells; experiment: JNG assay, co-culture with L428 cells; type: cell-based
Procedure: Cellular supernatant is collected and assayed for the induction of cytokines (e.g., IL2).
JNG (Jurkat cells expressing EGFP under an NFAT promoter) were infected with lentiviral vectors encoding different single chain and multi-chain SARs by spinfection in the presence of 8 µg/ml of Polybrene® (Sigma, Catalog no. H9268). The Jurkat-NFAT-GFP cells are engineered in such a way that the IL-2 promoter, which carries NFAT binding sites, is cloned upstream of the GFP gene. These cells have been used to study signaling via TCR and CAR. The different SARs were stably expressed in Jurkat NFAT-GFP cells by lentiviral mediated gene transfer, followed by selection with puromycin or blasticidin. No drug selection was used in case the construct lacked an antibiotic resistance gene. The SAR-expressing Jurkat-NFAT-GFP cells were cocultured with the target cells at E:T ratio of approximately 1:2 for approximately 4 hours to 18 hours. When the interaction between SIRs and their target antigen results in activation of the NFAT pathway, GFP expression is induced. […] GFP expression was monitored by FACS analysis. The Jurkat-NFAT-GFP (parental) cells were used as control. The structure of different constructs can be determined based on their names. […] The sequence of the other constructs in the table can be similarly determined from their names and by referring to the different Tables of this disclosure that provide the names and SEQ ID NO of the different modules. Alternatively, the composition and modular architecture of the different SAR constructs can be determined from their sequences by bioinformatics tools, including using nucleic acid and amino acids homology searches. […] The signs +/-, +, 2+ etc. after the name of the cell lines indicate the relative degree of positivity on the Jurkat-NFAT-GFP assay as measured by the % GFP positive cells after culture of the SAR expressing Jurkat-NFAT-GFP cells with that cell line above the % GFP cells observed in parental Jurkat NFAT-GFP cells serving as controls. […]

B1: 4090 (protein)
chain: MALPVTALLLPLALLLHAARPDIQMTQSPSSLSASVGDRVTITCKASDHINNWLAWYQQKPGQAPKLLIYGATTLETGVPSRFSGSGSGTDYTLTISSLQPEDFATYYCQQSWNTPWTFGQGTKLEIKRLEDLKNVFPPEVAVFEPSEAEISHTQKATLVCLATGFYPDHVELSWWVNGKEVHSGVCTDPQPLKEQPALNDSRYCLSSRLRVSATFWQNPRNHFRCQVQFYGLSENDEWTQDRAKPVTQIVSAEAWGRADCGFTSESYQQGVLSATILYEILLGKATLYAVLVSALVLMAMVKRKDSRGRAKRSGSGATNFSLLKQAGDVEENPGPTSMDWIWRILFLVGAATGAHSGPQVQLQESGGGLAQAGGSLRLSCAASGRTFSMGWFRQAPGKEREFVAAITYSGGSPYYASSVRGRFTISRDNAKNTVYLQMNSLKPEDTAVYYCAANPTYGSDWNAENWGQGTQVTVSSGSGGGGSGGGGSGGGGSFEQVQLQQPGAELVKPGASVKMSCKASGYAFSSYWINWMKQKPGQGLEWIGQIYPGDGDTNYNGKFKGRATLTADTSSSTAYMQLSSLTSEDSAVYFCARSITTVVGCAMDYWGQGTSVTVSSTRIQNPDPAVYQLRDSKSSDKSVCLFTDFDSQTNVSQSKDSDVYITDKCVLDMRSMDFKSNSAVAWSNKSDFACANAFNNSIIPEDTFFPSPESSCDVKLVEKSFETDTNLNFQNLSVIGFRILLLKVAGFNLLMTLRLWSSRAKRSGSGVKQTLNFDLLKLAGDVESNPGPSRGHMTEYKPTVRLATRDDVPRAVRTLAAAFADYPATRHTVDPDRHIERVTELQELFLTRVGLDIGKVWVADDGAAVAVWTTPESVEAGAVFAEIGPRMAELSGSRLAAQQQMEGLLAPHRPKEPAWFLATVGVSPDHQGKGLGSAVVLPGVEAAERAGVPAFLETSAPRNLPFYERLGFTVTADVEVPEGPRTWCMTRKPGA
modifications: Synthetic Polynucloetide
[1]
  GFP induction (JNG-GFP induction assay), DAUDI: highly positive
[2]
  GFP induction (JNG-GFP induction assay), RS;411: highly positive
[3]
  GFP induction (JNG-GFP induction assay), RAJI WT: positive

B2: 4088 (protein)
chain: MALPVTALLLPLALLLHAARPDIQMTQSPSSLSASVGDRVTITCKASDHINNWLAWYQQKPGQAPKLLIYGATTLETGVPSRFSGSGSGTDYTLTISSLQPEDFATYYCQQSWNTPWTFGQGTKLEIKRLEIQNPDPAVYQLRDSKSSDKSVCLFTDFDSQTNVSQSKDSDVYITDKCVLDMRSMDFKSNSAVAWSNKSDFACANAFNNSIIPEDTFFPSSDVPCDVKLVEKSFETDTNLNFQNLSVIGFRILLLKVAGFNLLMTLRLWSSRAKRSGSGVKQTLNFDLLKLAGDVESNPGPTSMDWIWRILFLVGAATGAHSGPQVQLQESGGGLAQAGGSLRLSCAASGRTFSMGWFRQAPGKEREFVAAITYSGGSPYYASSVRGRFTISRDNAKNTVYLQMNSLKPEDTAVYYCAANPTYGSDWNAENWGQGTQVTVSSGSGGGGSGGGGSGGGGSFEQVQLQQPGAELVKPGASVKMSCKASGYAFSSYWINWMKQKPGQGLEWIGQIYPGDGDTNYNGKFKGRATLTADTSSSTAYMQLSSLTSEDSAVYFCARSITTVVGCAMDYWGQGTSVTVSSTREDLKNVFPPEVAVFEPSKAEIAHTQKATLVCLATGFYPDHVELSWWVNGKEVHSGVCTDPQPLKEQPALNDSRYCLSSRLRVSATFWQNPRNHFRCQVQFYGLSENDEWTQDRAKPVTQIVSAEAWGRADCGITSASYHQGVLSATILYEILLGKATLYAVLVSALVLMAMVKRKDSRGRAKRSGSGATNFSLLKQAGDVEENPGPSRGHMTEYKPTVRLATRDDVPRAVRTLAAAFADYPATRHTVDPDRHIERVTELQELFLTRVGLDIGKVWVADDGAAVAVWTTPESVEAGAVFAEIGPRMAELSGSRLAAQQQMEGLLAPHRPKEPAWFLATVGVSPDHQGKGLGSAVVLPGVEAAERAGVPAFLETSAPRNLPFYERLGFTVTADVEVPEGPRTWCMTRKPGA
modifications: Synthetic Polynucloetide
[1]
  GFP induction (JNG-GFP induction assay), DAUDI: highly positive
[2]
  GFP induction (JNG-GFP induction assay), RS;411: highly positive
[3]
  GFP induction (JNG-GFP induction assay), RAJI WT: positive

B3: 22164 (protein)
chain: MALPVTALLLPLALLLHAARPDIQMTQSPSSLSASVGDRVTITCKASDHINNWLAWYQQKPGQAPKLLIYGATTLETGVPSRFSGSGSGTDYTLTISSLQPEDFATYYCQQSWNTPWTFGQGTKLEIKRLEDLKNVFPPEVAVFEPSEAEISHTQKATLVCLATGFYPDHVELSWWVNGKEVHSGVCTDPQPLKEQPALNDSRYCLSSRLRVSATFWQNPRNHFRCQVQFYGLSENDEWTQDRAKPVTQIVSAEAWGRADCGFTSESYQQGVLSATILYEILLGKATLYAVLVSALVLMAMVKRKDSRGRAKRSGSGATNFSLLKQAGDVEENPGPTSATMDWIWRILFLVGAATGAHSGPEVQLVESGGGLVQAGGSLRLSCAASGSVFSGNVMGWYRQAPGKEREWVAAIASGGSIYYRDSVKGRFTISRDNAKNTVYLQMNSLKPEDTAVYYCNSHPPTLPYWGLGTQVTVSSGSGGGGSGGGGSGGGGSFEQVQLQQPGAELVKPGASVKMSCKASGYAFSSYWINWMKQKPGQGLEWIGQIYPGDGDTNYNGKFKGRATLTADTSSSTAYMQLSSLTSEDSAVYFCARSITTVVGCAMDYWGQGTSVTVSSTRIQNPDPAVYQLRDSKSSDKSVCLFTDFDSQTNVSQSKDSDVYITDKCVLDMRSMDFKSNSAVAWSNKSDFACANAFNNSIIPEDTFFPSPESSCDVKLVEKSFETDTNLNFQNLSVIGFRILLLKVAGFNLLMTLRLWSSRAKRSGSGVKQTLNFDLLKLAGDVESNPGPSRGHMTEYKPTVRLATRDDVPRAVRTLAAAFADYPATRHTVDPDRHIERVTELQELFLTRVGLDIGKVWVADDGAAVAVWTTPESVEAGAVFAEIGPRMAELSGSRLAAQQQMEGLLAPHRPKEPAWFLATVGVSPDHQGKGLGSAVVLPGVEAAERAGVPAFLETSAPRNLPFYERLGFTVTADVEVPEGPRTWCMTRKPGA
[4]; co-culture with L428
  NFAT-GFP ASSAY: L428: 3+ (refer to approximately 5%, 10%, 20%, 30%, 40% and 50% GFP positive cells)

B4: 22292 (protein)
chain: MALPVTALLLPLALLLHAARPACMGSWFEFYDRLNAIDARLWALGGSEAELAAFEKEIAAFESELQAYKGKGNPEVENLRVHAAAIREWLQAYRHNGTGGGGSGGGGSGGGGSEFDIQMTQSPSSLSASVGDRVTITCKASDHINNWLAWYQQKPGQAPKLLIYGATTLETGVPSRFSGSGSGTDYTLTISSLQPEDFATYYCQQSWNTPWTFGQGTKLEIKRLEDLKNVFPPEVAVFEPSEAEISHTQKATLVCLATGFYPDHVELSWWVNGKEVHSGVCTDPQPLKEQPALNDSRYCLSSRLRVSATFWQNPRNHFRCQVQFYGLSENDEWTQDRAKPVTQIVSAEAWGRADCGFTSESYQQGVLSATILYEILLGKATLYAVLVSALVLMAMVKRKDSRGRAKRSGSGATNFSLLKQAGDVEENPGPTSMDWIWRILFLVGAATGAHSFEQVQLQQPGAELVKPGASVKMSCKASGYAFSSYWINWMKQKPGQGLEWIGQIYPGDGDTNYNGKFKGRATLTADTSSSTAYMQLSSLTSEDSAVYFCARSITTVVGCAMDYWGQGTSVTVSSTRIQNPDPAVYQLRDSKSSDKSVCLFTDFDSQTNVSQSKDSDVYITDKCVLDMRSMDFKSNSAVAWSNKSDFACANAFNNSIIPEDTFFPSPESSCDVKLVEKSFETDTNLNFQNLSVIGFRILLLKVAGFNLLMTLRLWSSRAKRSGSGVKQTLNFDLLKLAGDVESNPGPSRGHMTEYKPTVRLATRDDVPRAVRTLAAAFADYPATRHTVDPDRHIERVTELQELFLTRVGLDIGKVWVADDGAAVAVWTTPESVEAGAVFAEIGPRMAELSGSRLAAQQQMEGLLAPHRPKEPAWFLATVGVSPDHQGKGLGSAVVLPGVEAAERAGVPAFLETSAPRNLPFYERLGFTVTADVEVPEGPRTWCMTRKPGA
[4]; L428 in presence of SAR adaptor bc40-p26-CD123-cg06
  NFAT-GFP ASSAY: L428 with bc40-p26-CD123-cg06: +3
